Experimental data: publication PMC9491710 (Science Advances, 2022)

Tests used:
[1] = target: the molecule itself; assay: crystal structure
[2] = target: the molecule itself; assay: crystal structure; remark: listed apart in the source
[3] = target: the molecule itself; assay: crystal structure; remark: listed apart in the source
[4] = target: the molecule itself; assay: cryo-EM structure

B1: isolated KS4 domain (amino acids 1587 to 2220 of BBR47_39880) (domain or fragment, UniProt C0ZGQ6 1587-2220, looked up)
chain: PPKGALDIAIIGISGRYPQARNIHDFWKNLRDGKDCITEIPKDRWDHSLYFDEAKDKLGKSYSKWGGFIDGVDQFDPLFFHISPREAELMDPQERLFLQCVYETIEDAGYTRETLGKHEGLGGNVGVYVGVMYEEYQLYASAEQALGRALAIAGSPASIANRVSYFCNFHGPSMAVDTMCSSSLTGIHLACHSLQRGECEVAIAGGVNVSIHPNKYLYLSQGKFASSKGRCESFGEGGDGYVPGEGVGAVLLKPLARAIADGDHIYGVIKGSAINHGGKTNGYTVPNPHSQSRVIRRAFEEAGIHPRTVSYIEAHGTGTSLGDPIEIAGLTKTFQEYTKENQFCAIGSAKSNIGHGESAAGIAGLTKILLQMKYKRLVPSLHSRTLNPNIDFSKTPFVVQQELAEWKRPVIEIDGVTREYARIAGISSFGAGGANAHLVIEEYIEAEHRPPSSISSKNPAVIVLSAKNKDRLREQVQRLLSAIREQVLTDNDLAEIAYTLQVGREAMEERFAVIVKSISELEAKLTYYLKDEADSPDLFTGQVKRNKETMDVFAADEDLQQAIDTWITKGKYAKILQMWVQGLIFDWNKLYGDTKPRRISLPAYPFARERYWLPKVESQAIGLTAGEPAYLHPL
stoichiometry N [1]: 2

B2: isolated KS3 domain (amino acids 532 to 1135 of BBR47_39880) (domain or fragment, UniProt C0ZGQ6 532-1135, looked up)
chain: SPSSVVRDVAIIGLSGRYPQAKNVDEFWNRLKEGKNCISEIPKDRWDWQSFFDEEKGKKESMYTKWGGFIDDMDKFDPLFFQISPKEAEEMDPQERLFLQEAYASIEDAGYTPTTLCESRKVGVFVGVMNGNYPTGATYWSIANRLSYLLNFQGPSVAVDTACSASLTAIHFALESLYSGTSECAIAGGVNLIVDPVHYMKLSALTMLSPSNQCKSFGDQADGFVDGEGVGAIVLKPLDKAIADGDHIYGVIKGSMMNAGGKTNGYTVPNPQAQAQLVADALQRANVHARTVSYLEAHGTGTELGDPIEVAGLTRAFEKDTQDKQFCALGSAKSNIGHCESAAGIAGVTKILLQLKHAQLVPSLHSRTLNPNIDFTKTPFVVQQELAEWRRPIVEINGTTNEYPRIAGISSFGAGGSNAHVIIEEYIPEEQKQSSLKITPQNPAIFVLSAKNAERLYEIVQQLLAFIQEHSLSDEHLADMAYTLQVGRVAMEERIAVIAGTMKELQQKLTAYVKGQEHIADLYRGQVNRNQEMLDILTSDDELEETIARWMERGKYSKLLDLWVKGLSIDWNKLYQEEQPGRISLPTYPFAKESYWTHARSVSS
stoichiometry N [2]: 2

B3: isolated DH3 domain (amino acids 1135 to 1434 of BBR47_39880) (domain or fragment, UniProt C0ZGQ6 1135-1434, looked up)
chain: SSTGVGVIHPFLHQNTSDFMEQRFSSMFTGQEFFLSDHVIKGQRVLPSAAYLEMARAAIQQATGGLDSERELEGLRFKNVVWTQPLAVGPEPVQAHIELYPEANGEIVFEIYSDSKQDRDQTTEIVHSQGSAVLCSIPDIPSFDLSVLQEQCSLRTLSAEQCYDAFKKMGVDYGPAHRGIEQILIGQEQVLAKLSLPSSVVKTQGQFGLHPSLLDAALQSSLGLMMATSDFSLILPFALEEMVIVGDCSSSMWALIRYREGSKAGDRVEKFDIDLCDENGNVQVRMKGFSTRKIANVSVR
stoichiometry N [3]: 2

B4: K3DAK4 bimodule core (KS3-DH3-ACP-KS4 fragment of BBR47_39880, amino acids 532 to 2220) (domain or fragment, UniProt C0ZGQ6 532-2220, looked up)
chain: SPSSVVRDVAIIGLSGRYPQAKNVDEFWNRLKEGKNCISEIPKDRWDWQSFFDEEKGKKESMYTKWGGFIDDMDKFDPLFFQISPKEAEEMDPQERLFLQEAYASIEDAGYTPTTLCESRKVGVFVGVMNGNYPTGATYWSIANRLSYLLNFQGPSVAVDTACSASLTAIHFALESLYSGTSECAIAGGVNLIVDPVHYMKLSALTMLSPSNQCKSFGDQADGFVDGEGVGAIVLKPLDKAIADGDHIYGVIKGSMMNAGGKTNGYTVPNPQAQAQLVADALQRANVHARTVSYLEAHGTGTELGDPIEVAGLTRAFEKDTQDKQFCALGSAKSNIGHCESAAGIAGVTKILLQLKHAQLVPSLHSRTLNPNIDFTKTPFVVQQELAEWRRPIVEINGTTNEYPRIAGISSFGAGGSNAHVIIEEYIPEEQKQSSLKITPQNPAIFVLSAKNAERLYEIVQQLLAFIQEHSLSDEHLADMAYTLQVGRVAMEERIAVIAGTMKELQQKLTAYVKGQEHIADLYRGQVNRNQEMLDILTSDDELEETIARWMERGKYSKLLDLWVKGLSIDWNKLYQEEQPGRISLPTYPFAKESYWTHARSVSSSTGVGVIHPFLHQNTSDFMEQRFSSMFTGQEFFLSDHVIKGQRVLPSAAYLEMARAAIQQATGGLDSERELEGLRFKNVVWTQPLAVGPEPVQAHIELYPEANGEIVFEIYSDSKQDRDQTTEIVHSQGSAVLCSIPDIPSFDLSVLQEQCSLRTLSAEQCYDAFKKMGVDYGPAHRGIEQILIGQEQVLAKLSLPSSVVKTQGQFGLHPSLLDAALQSSLGLMMATSDFSLILPFALEEMVIVGDCSSSMWALIRYREGSKAGDRVEKFDIDLCDENGNVQVRMKGFSTRKIANVSVRSEVEVPKASVPLEEEKAIDSSSLMEQATPYFKKLLSSVIKLPANKMEADASLEKYGVDSIVAMQMTKELEKQFGSLPKTLFFEYQTIKELTGYFLENYRENLMHILGMRENAEASLTQESEATMVDEVKAQTERRSKKRKSQRFASLRMETQPPKGALDIAIIGISGRYPQARNIHDFWKNLRDGKDCITEIPKDRWDHSLYFDEAKDKLGKSYSKWGGFIDGVDQFDPLFFHISPREAELMDPQERLFLQCVYETIEDAGYTRETLGKHEGLGGNVGVYVGVMYEEYQLYASAEQALGRALAIAGSPASIANRVSYFCNFHGPSMAVDTMCSSSLTGIHLACHSLQRGECEVAIAGGVNVSIHPNKYLYLSQGKFASSKGRCESFGEGGDGYVPGEGVGAVLLKPLARAIADGDHIYGVIKGSAINHGGKTNGYTVPNPHSQSRVIRRAFEEAGIHPRTVSYIEAHGTGTSLGDPIEIAGLTKTFQEYTKENQFCAIGSAKSNIGHGESAAGIAGLTKILLQMKYKRLVPSLHSRTLNPNIDFSKTPFVVQQELAEWKRPVIEIDGVTREYARIAGISSFGAGGANAHLVIEEYIEAEHRPPSSISSKNPAVIVLSAKNKDRLREQVQRLLSAIREQVLTDNDLAEIAYTLQVGREAMEERFAVIVKSISELEAKLTYYLKDEADSPDLFTGQVKRNKETMDVFAADEDLQQAIDTWITKGKYAKILQMWVQGLIFDWNKLYGDTKPRRISLPAYPFARERYWLPKVESQAIGLTAGEPAYLHPL
stoichiometry N [4]: 2
